Assay results from patent US6610494B2, “Solid-phase activity assay for biologically active substance” (priority 1996, dated 2003).

Experiments:
[1] = ELSA: hydrolysis of plate-bound biotinylated β-glucan by enzymes; assay type: biochemical; settings: for Relative activity compared to lichenase (mean ± SD, n = 12): enzymes diluted to 5 U/mL per manufacturer values, 0.2 biotin-glucan diluted 1 to 50,000, hydrolysis 15 min, 22° C.
Experimental: Preparation of biotin-glucan conjugates. The technique is based on the principle that active aldehyde groups which is generated after sodium periodate oxidation of the hydroxyl group of the polysaccharide moiety, reacts with ethylenediamine to form an aminated polysaccharide. The Schiff bases that are formed are stabilized by reaction with sodium borohydride (Wong, 1991). The amine groups can then be conjugated to biotin using BNHS. In brief, 75 mg β-glucan was dissolved in 2 mL distilled water and 0.1 mL of 100 mM NaIO4 was then added. The reaction was protected from light and mixed for 0.5 hours at room temperature. The reaction mixture was treated with 1 mL ethylenediamine for 2 hours and unreacted reagents were removed by ethanol precipitation. This involved the addition of 8 mL of 95% (V/V) ethanol to the reaction mixture (3 mL), followed by mixing of the sample, centrifugation at 10000 g for 10 minutes at 0° C. and dissolving the pellet in 2 mL of distilled water. The preparations was washed three times. The washed precipitate was then dissolved in 2 mL distilled water, 5 mg of sodium borohydride were added and the reaction was allowed to proceed for 4 hours at 4° C. The washing steps as indicated above were repeated three times. The biotin ester (BNHS, 15 mg or 0.15 mg) was dissolved in 0.2 mL DMSO, the mixture was allowed to react at room temperature for 3 hours followed by three ethanol precipitations as described above. The final precipitate was dissolved in 3 mL distilled water, divided into aliquots and each aliquot of the BNHS-β-glucan complex was store frozen at […] in sealed polypropylene containers. The ratio of BNHS to β-glucan were 0.2 and 0.002 for the complexes that were synthesized from 15 mg or 0.15 mg BNHS and 75 mg β-glucan, respectively.
The microtitre plates were directly coated with 0.1 mL/well of the biotin-glucan complex diluted in 0.05 M carbonate-bicarbonate buffer (pH=9.6), and then left at room temperature for 1 hr and overnight at […] The usual dilutions of the 0.2 and 0.002 stock biotin-glucan complex were 50,000 and 100 fold, respectively. The plates were washed 3 times with PBS-T buffer and the emptied plates were stored in sealed containers at 0° C. for up to several months.
Test procedures. β-Glucanase (lichenase) was diluted with 20 mM sodium phosphate buffer (pH 6.5) to the desired concentration. The enzyme (100 μL) was added to each well in the biotin-glucan coated microtiter plate, the plate was sealed with a low evaporation lid, and the mixture was incubated for the desired period of time (from 1 to 30 minutes) and at the desired temperature (usually 22-24° C.). The reaction was stopped by emptying the plates followed by washing of the wells three times with pH 7.2 PBS-T. Blanks contained the incubation buffer without enzyme. Alkaline phosphatase-streptavidin (100 μg) diluted 1:1000 in pH 7.2 PBS was added to each well and incubated for 30 minutes at room temperature. The plates were washed six times with pH 7.2 PBS-T and dried at ambient temperature for approximately 10 to 20 minutes. Alkaline phosphatase substrate solution was then added to each well (100 μL) and the microtiter plates were incubated at room temperature for 30 minutes, or until absorbency of the well with no enzyme yielded a value of from 1.5 to 2.0 optical density units. The plates were read at 405 nm using a microtiter plate reader (Bio-Rad Laboratories Ltd., Mississauga, ON, Canada, Model 450).
Other procedures The method for preparing the arabinoxylan substrate was the same as used for β-glucan except the substrate was arabinoxylan rather than β-glucan. The BNHS to arabinoxylan ratio was 0.2 with the stock substrate being diluted 10,000 fold prior to being coated on the plate. The azo-barley-glucan method for the assay of β-glucanase was according to the procedure described by McCleary and Shameer (1987). The precision of the assay was studied using three concentration of enzyme (0.076, 2.1 and 160 mU)/well. […]

trypsin (EC 3.4.21.4) = assay: BEISA: competition of inhibitors or other substances for biotinylated trypsin against coated ovomucoid; assay type: binding
Experimental: Methods: NHS-biotin solution (5.5 mg in 200 ul dimethyl sulfoxide) and trypsin solution (15 mg in 1000 ul PBS) were mixed and reacted at room temperature for 3 hours with gently shaking. The unconjugated biotin was removed at 4° C. using minicon-15 concentrator (Amicon. Co.). The final volume was 1000 ul.
The 96-well microtiter plate (Falcon 3911) was coated with trypsin egg white inhibitor (ovomucoid, 4 ug/100 ul/well) at 370° C. overnight. The plate was washed once using PBST {[PBS, NaCl, 9.00; Na2HPO4, 1.15; NaH2PO4, 0.23 (g/l) pH 7.2] plus 0.05% Tween-20} and 200 ul of 5% skim milk was added to each well of the plate followed by incubation at 37° C. for 2 hours. The plate was rinsed twice with PBST and 50 ul of PBS was added to each well of the plate except for those in column one where 100 ul of PBS was added. Unlabelled trypsin (50 ul of 400 ug/ml) was added to the wells of the second column followed by successive double dilutions of trypsin in wells up to and including those in column 11. Biotinylated trypsin in PBS (50 ul of 1:3000 dilution of the stock to yield approximately 2 ug/100 ul/well) was added to each well except those in the first column followed by incubation at 37° C. for 1 hour. The final volume in each well was 100 ul. The blank set of wells with no trypsin (column 1) served as the negative control while the last set of wells (column 12) with biotinylated trypsin but no unlabelled trypsin served as the positive control. The plate was then washed three times with PBST and 100 ul of streptavidin-alkaline phosphatase (1:1000 in 50 mM bicarbonate buffer, pH 9.5) was added to each well of the plate and the plate was incubated at room temperature for 30 minutes. The plate was washed five times using PBST and 100 ul/well of p-nitrophenyl phosphate substrate (1 mg/ml in 10% diethanolamine buffer, pH 9.8) was added to the plate followed by incubation at ambient temperature for about 30 minutes. The absorbency was then read at 405 nm using a microplate reader (Bio-Rad laboratories Inc. Mississauga, ON, Canada, model 450). […]

biotinylated α-casein = assay: Solid phase protease activity assay using biotinylated casein; assay type: biochemical; settings: for Hydrolysis of biotin-casein by proteases / Sensitivity (amount of enzyme required to hydrolyse 10% of the biotinylated α-casein): optimal pH of each protease, 37° C., 30 minutes
Experimental: Preparation of biotinylated casein: 12 mg α-casein in 1 ml of 0.1 M pH 7.2 phosphate-buffer saline [PBS, NaCl, 9.00; Na2HPO4, 1.15; NaH2PO4, 0.23 (g/l)] was allowed to react with 3.6 mg NHS-biotin in 150 ul DMSO for 2 hours at room temperature with gently shaking.
Assay procedure for protease activity using biotinylated casein: The microtitre plates except for the first column of 8 wells were coated using biotinylated α-casein in PBS (0.13 ug/well/100 ul) and incubated for 2 hours at 37° C. The plates were washed three times with 0.1 M PBST (PBS with 0.05% Tween-20). Different concentrations of the enzyme solution as indicated in FIGS. 12-14 (100 ul) were diluted with the appropriate buffer (see Table 2). They were added in triplicate to the wells of a plate followed by incubating in a humid atmosphere at 37° C. for 30 minutes. The plate was washed three times using PBST to terminate the protease reaction. A streptavidin-alkaline phosphatase solution (100 ul/well, 1:1000 dilution in bicarbonate buffer pH 9.5) was added to all wells in the plate except for the first column of 8 wells (as blank) and the plate was incubated at room temperature for 30 minutes. The blank set of wells contained only PBS, no added enzyme and no coating with biotinylated casein. The reaction was stopped by emptying and washing the plate six times with PBST. The pNPP substrate (100 ul/well, 1 mg/ml in 10% diethanolamine buffer pH9.8) was added to each well of the plate followed by incubation at room temperature for about 20 minutes. The absorbency was then read at 405 nm using a microplate reader (Bio-Rad laboratories, Ltd, Mississauga, ON, Canada; model 450). The best sensitivity was obtained when the maximum absorbency was around 2.0 optical density units.

β-glucanase (lichenase) = target: T1, β-glucanase (lichenase) (Bacillus subtilis, UniProt P04957); assay: Influence of exogenous β-glucan on β-glucanase activity in the ELSA; assay type: biochemical; settings: 0.5 mU β-glucanase/well; 22° C., 15 minutes
T1 construct: purchased Megazyme Pty.Ltd. batch MLI 82001
Excerpt: (§1) Other procedures The method for preparing the arabinoxylan substrate was the same as used for β-glucan except the substrate was arabinoxylan rather than β-glucan. The BNHS to arabinoxylan ratio was 0.2 with the stock substrate being diluted 10,000 fold prior to being coated on the plate. The azo-barley-glucan method for the assay of β-glucanase was according to the procedure described by McCleary and Shameer (1987). The precision of the assay was studied using three concentration of enzyme (0.076, 2.1 and 160 mU)/well. They were added (100 μl) to wells containing the 0.2 biotin-β-glucan diluted 1 to 50,000 and the mixture was incubated for 15 minutes at 22° C. Other procedures were as described above. The assay within the same titer plate was replicated 8 times. The entire assay was replicated 6 times. In the study on the effects that β-glucan had on enzyme activity, β-glucan (5.12 mg/mL) in 20 mM sodium phosphate buffer (pH6.5) was mixed with an equal volume of 0.2 U/mL of β-glucanase and hydrolysed at 40° C. for 60 minutes. The reaction was stopped by putting the enzyme solution in a boiling water bath for 15 minutes. The control sample contained β-glucan but was not incubated with enzyme and was not subjected to boiling. […]

[2] = Azo-barley glucan method for β-glucanase; assay type: biochemical
Excerpt: as §1

[3] = ELSA for xylanase using biotin-arabinoxylan complex; assay type: biochemical
Excerpt: as §1

1,4-β-D-glucan-4-glucanohydrolase [Cellulase]
Relative activity compared to lichenase (mean ± SD, n = 12) [1]: 101 ± 7

CC(C)C[C@H](NC(=O)N[C@H](C(=O)N[C@@H](CCC(N)=O)C(=O)N[C@@H](C)C=O)[C@@H]1CCNC(=N)N1)C(=O)O [elastatinal]
Interference with the binding of labelled trypsin to trypsin inhibitor (trypsin (EC 3.4.21.4)): did not interfere

CC(=O)N[C@@H](CC(C)C)C(=O)N[C@@H](CC(C)C)C(=O)N[C@H](C=O)CCCNC(=N)N [leupeptin]
Concentration of inhibitor that could be detected (trypsin (EC 3.4.21.4); ovomucoid-coated plate 4 ug/100 ul/well, biotinylated trypsin about 2 ug/100 ul/well): 0.03 to 1 µg/mL

amylopectin 6-glycohydrolase [Pullulanase]
Relative activity compared to lichenase (mean ± SD, n = 12) [1]: 1.8 ± 0.1

bovine serum albumin (BSA): other protein tested for interference
Interference with the binding of labelled trypsin to trypsin inhibitor (trypsin (EC 3.4.21.4)): did not interfere

elastase
Hydrolysis of biotin-casein by proteases (biotinylated α-casein): Yes
Sensitivity (amount of enzyme required to hydrolyse 10% of the biotinylated α-casein) (biotinylated α-casein): 4.4 ng/100 ul/sample

endo-1,4-β-D xylan xylanohydrolase [Endo-β-xylanase]
Relative activity compared to lichenase (mean ± SD, n = 12) [1]: 2.1 ± 0.1

pepsin
Hydrolysis of biotin-casein by proteases (biotinylated α-casein): Yes
Sensitivity (amount of enzyme required to hydrolyse 10% of the biotinylated α-casein) (biotinylated α-casein): 641 ng/100 ul/sample

β-glucan
Amount of β-glucan in the well above which enzyme activity was reduced (β-glucanase (lichenase)): exceeded 1 μg/well

B1: endo-1,3-1,4-β-D-glucan-4-glucanohydrolase (protein, UniProt P04957 29-242, looked up)
Beta-glucanase: QTGGSFFDPFNGYNSGFWQKADGYSNGNMFNCTWRANNVSMTSLGEMRLALTSPAYNKFDCGENRSVQTYGYGLYEVRMKPAKNTGIVSSFFTYTGPTDGTPWDEIDIEFLGKDTTKVQFNYYTNGAGNHEKIVDLGFDAANAYHTYAFDWQPNSIKWYVDGQLKHTATNQIPTTPGKIMMNLWNGTGVDEWLGSYNGVNPLYAHYDWVRYTKK
notes: EC 3.2.1.73 from Bacillus subtilis, Megazyme
Detection range of the azo-barley glucan procedure [2]: 10 to 100 mU/assay
Activity on biotin-arabinoxylan substrate [3]: No activity
Detection range for the ELSA [1]: 0.001 to 1 mU/assay
Relative activity compared to lichenase (mean ± SD, n = 12) [1]: 100 ± 4

B2: thermolysin: metaloprotease, EC 3.4.24.27 (protein, UniProt P00800 233-548, looked up)
Thermolysin: ITGTSTVGVGRGVLGDQKNINTTYSTYYYLQDNTRGNGIFTYDAKYRTTLPGSLWADADNQFFASYDAPAVDAHYYAGVTYDYYKNVHNRLSYDGNNAAIRSSVHYSQGYNNAFWNGSQMVYGDGDGQTFIPLSGGIDVVAHELTHAVTDYTAGLIYQNESGAINEAISDIFGTLVEFYANKNPDWEIGEDVYTPGISGDSLRSMSDPAKYGDPDHYSKRYTGTQDNGGVHINSGIINKAAYLISQGGTHYGVSVVGIGRDKLGKIFYRALTQYLTPTSNFSQLRAAAVQSATDLYGSTSQEVASVKQAFDAVGVK
Hydrolysis of biotin-casein by proteases (biotinylated α-casein): Yes
Sensitivity (amount of enzyme required to hydrolyse 10% of the biotinylated α-casein) (biotinylated α-casein): 25 ng/100 ul/sample

B3: 1,4-D glucan glucanohydrolase (protein, UniProt P00690 16-511, looked up)
Pancreatic alpha-amylase: QYAPQTQSGRTSIVHLFEWRWVDIALECERYLGPKGFGGVQVSPPNENIVVTNPSRPWWERYQPVSYKLCTRSGNENEFRDMVTRCNNVGVRIYVDAVINHMCGSGAAAGTGTTCGSYCNPGNREFPAVPYSAWDFNDGKCKTASGGIESYNDPYQVRDCQLVGLLDLALEKDYVRSMIADYLNKLIDIGVAGFRIDASKHMWPGDIKAVLDKLHNLNTNWFPAGSRPFIFQEVIDLGGEAIQSSEYFGNGRVTEFKYGAKLGTVVRKWSGEKMSYLKNWGEGWGFMPSDRALVFVDNHDNQRGHGAGGASILTFWDARLYKVAVGFMLAHPYGFTRVMSSYRWARNFVNGQDVNDWIGPPNNNGVIKEVTINADTTCGNDWVCEHRWRQIRNMVWFRNVVDGQPFANWWANGSNQVAFGRGNRGFIVFNNDDWQLSSTLQTGLPGGTYCDVISGDKVGNSCTGIKVYVSSDGTAQFSISNSAEDPFIAIHAESKL
notes: EC 3.2.1.1 from porcine pancreas (Type 1-A)
Relative activity compared to lichenase (mean ± SD, n = 12) [1]: 4.3 ± 0.2

B4: papain: cysteine protease, EC 3.4.22.2 (protein, UniProt P00784 134-345, looked up)
Papain: IPEYVDWRQKGAVTPVKNQGSCGSCWAFSAVVTIEGIIKIRTGNLNEYSEQELLDCDRRSYGCNGGYPWSALQLVAQYGIHYRNTYPYEGVQRYCRSREKGPYAAKTDGVRQVQPYNEGALLYSIANQPVSVVLEAAGKDFQLYRGGIFVGPCGNKVDHAVAAVGYGPNYILIKNSWGTGWGENGYIRIKRGTGNSYGVCGLYTSSFYPVKN
Sensitivity: amount of enzyme required to produce a 10% decrease in maximal absorbency (biotinylated α-casein; 0.5 hour hydrolysis): 700 ng/100 ul
Hydrolysis of biotin-casein by proteases (biotinylated α-casein): Yes
Sensitivity (amount of enzyme required to hydrolyse 10% of the biotinylated α-casein) (biotinylated α-casein): 700 ng/100 ul/sample
